# Molecular target: human IgA1 (human) (UniProt P01876)
# Assay: cell-based or functional assay
# Chain of UniProt P01876 (P01876 other isoform, or with tags, fused parts or gaps): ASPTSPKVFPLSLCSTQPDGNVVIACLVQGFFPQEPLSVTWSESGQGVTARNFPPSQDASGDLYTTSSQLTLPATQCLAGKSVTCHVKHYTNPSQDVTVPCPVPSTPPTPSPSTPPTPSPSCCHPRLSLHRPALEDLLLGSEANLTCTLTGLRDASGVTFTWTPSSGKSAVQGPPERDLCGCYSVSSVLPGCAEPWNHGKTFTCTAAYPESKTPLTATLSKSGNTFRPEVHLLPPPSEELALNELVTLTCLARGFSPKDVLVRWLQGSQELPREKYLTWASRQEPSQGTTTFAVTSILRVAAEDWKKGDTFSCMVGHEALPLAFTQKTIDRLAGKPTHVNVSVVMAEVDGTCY
substance,measurement,value
"C-terminal His-tagged H. influenzae IgA1 protease (proteolytic protease domain, lacking the α protein and β-core domains) (from UniProt P44969 26-1014) (enzyme)",human IgA1 cleavage activity of purified refolded IgA1 protease (Experion automated electrophoresis) (ng IgA1/uL/min/ng protease),50

# From US20100261252A1
